“And” between values parts separate entries of the source, which are not always exact repeats. Identical values can stand only once.
B1: 35S-labeled Bcl-X-S (in vitro translated) (other)
chain: MSQSNRELVVDFLSYKLSQKGYSWSQFSDVEENRTEAPEGTESEMETPSAINGNPSWHLADSPAVNGATGHSSSLDAREVIPMAAVKQALREAGDEFELRYRRAFSDLTSQLHITPGTAYQSFEQDTFVELYGNNAAAESRKGQERFNRWFLTGMTVAGVVLLGSLFSRK
modifications: 35S-methionine label
B2: 35S-labeled Bcl-2β (in vitro translated) (other)
chain: MAHAGRTGYDNREIVMKYIHYKLSQRGYEWDAGDVGAAPPGAAPAPGIFSSQPGHTPHPAASRDPVARTSPLQTPAAPGAAAGPALSPVPPVVHLTLRQAGDDFSRRYRRDFAEMSSQLHLTPFTARGRFATVVEELFRDGVNWGRIVAFFEFGGVMCVESVNREMSPLVDNIALWMTEYLNRHLHTWIQDNGGWVGALGDVSLG
modifications: 35S-methionine label

Key:
[1] = target: human Bcl-2 protein produced in 32D-BCL-2 cells (human) (UniProt P10415); experiment: immunoprecipitation with anti-Bcl-2 monoclonal antibody 4D7 or control mouse IgG1 from 32D-BCL-2 lysate, in vitro immune complex kinase assay
[2] = target: GST protein without BAP-1 sequences (Schistosoma japonicum (Blood fluke), UniProt P08515 = GST); experiment: GST pull-down of 35S-labeled in vitro translated protein, SDS-PAGE and fluorography
Description: The cDNA sequences encoding Bcl-X-L, Bcl-X-S, Bcl-2 and Bcl-2β were subcloned into plasmid pSK-II (Stratagens), which contains a T7 RNA polymerass binding site. Cloning into pSK-II allows for the in vitro production of RNA, which can be translated in vitro in the presence of ^35S-methionine using reticulocyte lysates to obtain ^35S-labeled proteins. The ^35S-labeled Bcl-2-related proteins (20 µl of in vitro translation mix) were added to approximately 1 µg of GST-BAP-1 fusion protein immobilized on 10 µl of glutathione-Sepharose or with approximately 1 µg of immobilized GST control protein as described above. Following incubation at 4° C. for 1 hr, the Sepharose particles were washed 3× in a solution containing 147 mM KCl, 20 mM Hepes (pH 7.1), 1 mM MgCl_2, 0.5 mM EGTA, 1 mM PMSF, 0.05 NP-40, 1 mM DTT, 1% non-fat dried milk and 1% BSA. The Sepharose particles were collected by centrifugation and boiled in Laemmli sample buffer to release any bound ^35S-labeled Bcl-2-related proteins. The released proteins were size-fractionated by SDS-PAGE using a 10% gel and visualized by fluorography using X-ray film.

Molecule	Raf-1 kinase activity in Bcl-2 immune complexes relative to control immune complexes (× (fold over control immune complexes)) [1]	binding result [2]
full length endogenous Raf-1 kinase (from UniProt Q99N57) (enzyme)	20 and 50	
B1		no binding
B2		no binding
